Test results from the supplement of paper PMC10201428.
± gives the standard deviation of the averaged measurements.

Experiments:
[1] = test system: VchCAST RNA-guided transposition machinery (E. coli BL21(DE3) host, lacZ target); test: relative integration efficiency (T-LR orientation) vs wild-type transposon end (log2 (normalized fold change)); transposon end mutated: right end (5 bp flank + 75 bp right end); higher = more efficient transposition
Protocol: (§1)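 Pooled, barcoded VchCAST (Tn6677) mini-transposon donor libraries; each variable transposon-end sequence sits in a fixed pDonor mini-transposon context (10-bp barcode and cargo not included). Left- or right-end libraries were co-transformed with pEffector (TniQ-Cascade, TnsABC, lacZ crRNA, T7, 0.1 mM IPTG) into E. coli BL21(DE3) and grown 18 h at 37 C. T-LR and T-RL junction amplicons were sequenced; output/input barcode fold change was normalised to the mean of four wild-type barcodes and log2-transformed. Two biological replicates; zero-count/undetected variants carry floor values (-10 / -15), censored here. Barcode uncoupling by PCR recombination adds noise.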

[2] = test system: VchCAST RNA-guided transposition machinery (E. coli BL21(DE3) host, lacZ target); test: relative integration efficiency (T-RL orientation) vs wild-type transposon end (log2 (normalized fold change)); transposon end mutated: right end (5 bp flank + 75 bp right end); higher = more efficient transposition
Protocol: as §1

Sequence | relative integration efficiency (log2) [1] | relative integration efficiency (log2) [2]
ACATTTGTTGATACAACCATAAAATGATAATTACACCCATAAATTGATAATTATCACACCCATAAATTGATATTGCCTCTGATCATAGTCAGCTGAAGCGAGACACCGACCAACATTGCACCGACAC | -0.204 ± 0.33 | -0.174 ± 0.19
ACATTTGTTGATACAACCATAAAATGATTATTACACCCATAAATTGATAATTGTGACACCGAATTTAACTATAACGCTCTGATCATAGTCAGACCAACATTGCTACGACCCGTATTCGCACCGACAC | 2.3 ± 0.095 | -1.18 ± 0.23
ACATTTGTTGATACAACCATAAAATGATAATTACACCCATAAATTGATAATTATCACACCCATAAATTGATATTGCAGAGGATCATAGTCAGACCAACATTGCTACGACCCGTATTCGCACCGACAC | -0.044 ± 0.11 | 0.0202 ± 0.033
ACATTTGTTGATACAACCATAACCTGATAATTACACCCATAACGTGATAATTATCACACCCATAACGTGATATTGCCTCTGATCATAGTCAGACCAACATTGCTACGACCCGTATTCGCACCGACAC | -0.339 ± 0.3 | -0.513 ± 0.02
ACATTTGTTGATACAACCATAAAAAGATAATTACACCCATAAATAGATAATTATCACACCCATAAATAGATATTGCCTCTGATCATAGTCAGACCAACATTGCTACGACCCGTATTCGCACCGACAC | -0.0292 ± 0.3 | -1.3 ± 0.18
ACATTTGTTGATACAACCATAAAATGATAATTACCAAACGCCCGGTCGCCGGCGACACAAACGCCCGGTCGCGGTAAGAGGATCATAGTCAGACCAACATTGCTACGACCCGTATTCGCACCGACAC | 0.864 ± 0.055 | -1.94 ± 0.27
ACATTTGTTGATACAACCATAAAATGATAATTACAACCATAAAGTGATATTTATCACACCCATAAATTGATAATTACTCTGATCATAGTCAGACCAACATTGCTACGACCCGTATTCGCACCGACAC | -0.0135 ± 0.3 | 0.00575 ± 0.15
ACATTTGTTGATACACCCATAAATTGATAATTACACCCATAAATTGATAATTATCACAACCATAAAGTGATATTTACTCTGATCATAGTCAGACCAACATTGCTACGACCCGTATTCGCACCGACAC | -0.01 ± 0.22 | -0.445 ± 0.034
ACATTTGTTGATACAACCATAAAATGATAATTACACCCAATTTTTGATAATTATCACACCCATAAATTGATATTGCCTCTGATCATAGTCAGACCAACATTGCTACGACCCGTATTCGCACCGACAC | -0.688 ± 0.35 | -0.529 ± 0.16
ACATTTGTTGATACAACCATAAAATGATAATTACACCCATAAATTGATAATTATCACACCCATAAATTGATATTGCCTCTGATCATAAATATATAAATTAATTATTAAATTAGTCAGGCACCGACAC | 1.54 ± 0.18 | 1.34 ± 0.21
ACATTTGTTGATACAACCTATTAATGATAATTACACCCATAAATTGATAATTATCACACCCATAAATTGATATTGCCTCTGATCATAGTCAGACCAACATTGCTACGACCCGTATTCGCACCGACAC | -1.46 ± 0.16 | -0.905 ± 0.052
ACATTTGTTGATACAACCATAAAATCATAATTACACCCATAAATTCATAATTATCACACCCATAAATTCATATTGCCTCTGATCATAGTCAGACCAACATTGCTACGACCCGTATTCGCACCGACAC | -1.52 ± 0.48 | -4.92 ± 0.57
ACATTTGTTGATACAACCATAAAATGATAATTACACCCATAAATTGATAATTATCACACCCATAAATTGATATTGCCTCTGATAACTTCGTATAATGTATACTATACGAAGTTATTCGCACCGACAC | 1.63 ± 0.07 | -1.3 ± 0.39
ACATTTGTTGATACAACCATAAAATGATCATTACACCCATCAATTGATAATTATCCCACCCAATTTAACTATAACGCTCTGATCATAGTCAGACCAACATTGCTACGACCCGTATTCGCACCGACAC | 0.874 ± 0.13 | -2.65 ± 0.42
ACATTTGTTGATACAACCATAAAATGATAAATACACCCATAAATTGATAATAATGACACCGAATTTAACTATAACGCTCTGATCATAGTCAGACCAACATTGCTACGACCCGTATTCGCACCGACAC | 2.26 ± 0.23 | -1.36 ± 0.43
ACATTTGTTGATACAACCAATAAATGATAATTACACCCATAAATTGATAATAATGACACCGAATTTAACTATAACGCTCTGATCATAGTCAGACCAACATTGCTACGACCCGTATTCGCACCGACAC | 2.08 ± 0.21 | -1.44 ± 0.28
ACATTTGTTGATACAAGCATAAAATGATAATTACACGCATAAATTGATAATTATCACACGCATAAATTGATATTGCCTCTGATCATAGTCAGACCAACATTGCTACGACCCGTATTCGCACCGACAC | -0.218 ± 0.08 | -0.3912 ± 0.0011
CAAAATGTAAAAAAAACCATACGTTGATTTTACGAAACCATACGCTGAAATAAAAACAACCATACCTTGAAATTGCTTATAAAGTGTACAACACTTGAGAAAGTTTACTACAGGTATGCACCGACAC | < -10 | –
ACATTTGTTGATACAACCATATTTACATAATTACACCCATATTAACATAATTATCACACCCATATTAACATATTGCCTCTGATCATAGTCAGACCAACATTGCTACGACCCGTATTCGCACCGACAC | – | -7.03 ± 0.43

Sequence | relative integration efficiency (log2) [1] | relative integration efficiency (log2) [2]
ACATTTGTTGATAACCAACGCCCCGTCGCCGGCACAAACGCCCGGTCGCCGGCGACACAAACGCCCGGTCGCGGTAAGAGGATCATAGTCAGACCAACATTGCTACGACCCGTATTCGCACCGACAC | – | -6.24 ± 0.19
ACATTTGTAAAAAAAACCATACGTTGATTTTACGAAACCATACGCTGAAATAATCACAACCATACCTTGAAATTGCCTCTGATCATAGTCAGACCAACATTGCTACGACCCGTATTCGCACCGACAC | – | -7.16 ± 0.43
ACATTAGTTCATACAACCATAAAATGATAATTACACCCATAAATTGATCATTATCACACCCAATTTAACTATAACGCTCTGATCATAGTCAGACCAACATTGCTACGACCCGTATTCGCACCGACAC | – | -7.24 ± 0.69
ACATTTGTTGATAGTTGGTATTTTACTATTAATCACCCATAAATTGATAATTATCACACCCATAAATTGATATTGCCTCTGATCATAGTCAGACCAACATTGCTACGACCCGTATTCGCACCGACAC | – | -7.24 ± 1
ACATTTGTTGATACAACCATAAAATGATAATTAATAATTATTTATAATCAGCAACACCCATAAATTGATAATTATCACACCCATAAATTGATATTGCCTCTGATCATAGTCAGACCAACATTGCTAC | – | -3.61 ± 0.38
ACATTTGTTGAAAAAACCATACGTTGATTTTACGAAACCATACGCTGAAATAATCACACCCATAAATTGATATTGCCTCTGATCATAGTCAGACCAACATTGCTACGACCCGTATTCGCACCGACAC | – | -6.48 ± 0.15
ACATTGGTTCATACAACCATAAAATGATAATTACACCCATAAATTGATCATTATCACACCCAATTTAACTATAACGCTCTGATCATAGTCAGACCAACATTGCTACGACCCGTATTCGCACCGACAC | – | -7.14 ± 0.11
CAAAATGTTGATAAAACCATACGTTGATTTTACGAAACCATACGCTGAAATAAAAACAACCATACCTTGAAATTGCTTATAAAGTGTACAACACTTGAGAAAGTTTACTACAGGTATGCACCGACAC | – | -9.08 ± 1.1
ACATTTGAACTTACAACCATAAAATGATAATTACACCCATAAATTGATAATTATCACACCCATAAATTGATATTGCCTCTGATCATAGTCAGACCAACATTGCTACGACCCGTATTCGCACCGACAC | – | -5.07 ± 0.78
ACATTTGTTGCAACCATAAAATGATAATTACACCCATAAATTGATAATTATCACACCCATAAATTGATATTGCCTCTGATCATAGTCAGACCAACATTGCTACGACCCGTATTCGCACCGACACTGA | – | -7.1 ± 0.91
ACATTTGTTGATACAACCATAAAATGATAATTAATAATTATTTATAATCAGCAACTTAACCACAAAACACCCATAAATTGATAATTAACAAACACCCATAAATTGATATTGCCTCTGATCATAGTCA | – | -5.35 ± 0.69
ACATTTGTTGATGCAACCATAAAGTGATATTTAATAATTATTTATAATCAGCAACTTAACCACAAAACAACCATATATTGATATCTCACAAAACAACCATAAGTTGATATTTTCTCTGATCATAGTC | < -10 | –
ACATTAGTTCATACAACCATAAAATGATAATTACACCCATAAATTGATAATTATCACACCCAATTTAACTATAACGCTCTGATCATAGTCAGACCAACATTGCTACGACCCGTATTCGCACCGACAC | – | -7.98 ± 0.089
ACATTGGTTCATACAACCATAAAATGATAATTACACCCATAAATGGATCATTATCACACCCAATTTAACTATAACGCTCTGATCATAGTCAGACCAACATTGCTACGACCCGTATTCGCACCGACAC | – | -7.4 ± 0.26
ACAAAACTTGATACAACCATAAAATGATAATTACACCCATAAATTGATAATTATCACACCCATAAATTGATATTGCCTCTGATCATAGTCAGACCAACATTGCTACGACCCGTATTCGCACCGACAC | – | -6.59 ± 0.45
ACATTTGTTGATACAACCATAAACGTCGCCGGCACAAACGCCCGGTCGCCGGCGACACAAACGCCCGGTCGCGGTAAGAGGATCATAGTCAGACCAACATTGCTACGACCCGTATTCGCACCGACAC | – | -6.69 ± 0.61
ACAGGGTTTGATACAACCATAAAATGATAATTACACCCATAAATTGATAATTATCACACCCATAAATTGATATTGCCTCTGATCATAGTCAGACCAACATTGCTACGACCCGTATTCGCACCGACAC | – | -7.26 ± 0.17
ACATTTGTTGATACAACCATACCCGTATAATTACACCCATACCGGTATAATTATCACACCCATACCGGTATATTGCCTCTGATCATAGTCAGACCAACATTGCTACGACCCGTATTCGCACCGACAC | – | -8.04 ± 1.3
